Reference: patent publication US20030170807A1 (Johns Hopkins, published 2003)
Each block holds one molecule with its values, some of them ahead of it.

What was measured:
[1] = target: mGluR of mouse cerebellar Purkinje cells (mouse) (UniProt P97772); test: cell-based or functional assay
[2] = target: T1, GKAP 1, native, from rat brain extracts (rat, UniProt P97836 1-992); test: GST pull-down from rat brain extracts
T1 construct: mature
T1 sequence (looked up): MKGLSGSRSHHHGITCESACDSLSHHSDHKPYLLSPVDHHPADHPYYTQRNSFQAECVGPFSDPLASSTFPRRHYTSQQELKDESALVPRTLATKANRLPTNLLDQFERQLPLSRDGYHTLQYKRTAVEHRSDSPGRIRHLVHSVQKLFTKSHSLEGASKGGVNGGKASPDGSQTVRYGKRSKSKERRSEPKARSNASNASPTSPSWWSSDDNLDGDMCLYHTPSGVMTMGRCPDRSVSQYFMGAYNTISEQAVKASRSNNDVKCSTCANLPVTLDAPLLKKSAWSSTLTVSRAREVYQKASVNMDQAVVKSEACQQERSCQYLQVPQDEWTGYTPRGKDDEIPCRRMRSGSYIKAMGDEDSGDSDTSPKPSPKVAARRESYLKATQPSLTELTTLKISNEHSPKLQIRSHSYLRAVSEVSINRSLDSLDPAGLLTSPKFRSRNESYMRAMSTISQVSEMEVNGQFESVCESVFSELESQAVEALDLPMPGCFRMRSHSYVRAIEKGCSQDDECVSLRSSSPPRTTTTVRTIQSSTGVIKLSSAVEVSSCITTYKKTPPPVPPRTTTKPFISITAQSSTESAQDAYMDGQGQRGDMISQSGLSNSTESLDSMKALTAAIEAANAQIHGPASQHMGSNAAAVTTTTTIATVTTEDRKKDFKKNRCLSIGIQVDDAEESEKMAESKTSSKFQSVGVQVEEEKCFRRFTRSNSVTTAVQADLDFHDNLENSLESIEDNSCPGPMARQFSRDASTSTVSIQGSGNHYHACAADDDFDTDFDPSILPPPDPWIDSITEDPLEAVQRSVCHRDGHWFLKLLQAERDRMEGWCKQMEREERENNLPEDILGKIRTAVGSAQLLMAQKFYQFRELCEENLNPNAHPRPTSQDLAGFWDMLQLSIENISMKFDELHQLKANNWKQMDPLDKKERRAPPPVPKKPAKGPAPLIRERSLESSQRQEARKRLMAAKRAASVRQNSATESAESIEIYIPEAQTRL

Sequence of mGluR of mouse cerebellar Purkinje cells (mouse) (P97772 21-1199): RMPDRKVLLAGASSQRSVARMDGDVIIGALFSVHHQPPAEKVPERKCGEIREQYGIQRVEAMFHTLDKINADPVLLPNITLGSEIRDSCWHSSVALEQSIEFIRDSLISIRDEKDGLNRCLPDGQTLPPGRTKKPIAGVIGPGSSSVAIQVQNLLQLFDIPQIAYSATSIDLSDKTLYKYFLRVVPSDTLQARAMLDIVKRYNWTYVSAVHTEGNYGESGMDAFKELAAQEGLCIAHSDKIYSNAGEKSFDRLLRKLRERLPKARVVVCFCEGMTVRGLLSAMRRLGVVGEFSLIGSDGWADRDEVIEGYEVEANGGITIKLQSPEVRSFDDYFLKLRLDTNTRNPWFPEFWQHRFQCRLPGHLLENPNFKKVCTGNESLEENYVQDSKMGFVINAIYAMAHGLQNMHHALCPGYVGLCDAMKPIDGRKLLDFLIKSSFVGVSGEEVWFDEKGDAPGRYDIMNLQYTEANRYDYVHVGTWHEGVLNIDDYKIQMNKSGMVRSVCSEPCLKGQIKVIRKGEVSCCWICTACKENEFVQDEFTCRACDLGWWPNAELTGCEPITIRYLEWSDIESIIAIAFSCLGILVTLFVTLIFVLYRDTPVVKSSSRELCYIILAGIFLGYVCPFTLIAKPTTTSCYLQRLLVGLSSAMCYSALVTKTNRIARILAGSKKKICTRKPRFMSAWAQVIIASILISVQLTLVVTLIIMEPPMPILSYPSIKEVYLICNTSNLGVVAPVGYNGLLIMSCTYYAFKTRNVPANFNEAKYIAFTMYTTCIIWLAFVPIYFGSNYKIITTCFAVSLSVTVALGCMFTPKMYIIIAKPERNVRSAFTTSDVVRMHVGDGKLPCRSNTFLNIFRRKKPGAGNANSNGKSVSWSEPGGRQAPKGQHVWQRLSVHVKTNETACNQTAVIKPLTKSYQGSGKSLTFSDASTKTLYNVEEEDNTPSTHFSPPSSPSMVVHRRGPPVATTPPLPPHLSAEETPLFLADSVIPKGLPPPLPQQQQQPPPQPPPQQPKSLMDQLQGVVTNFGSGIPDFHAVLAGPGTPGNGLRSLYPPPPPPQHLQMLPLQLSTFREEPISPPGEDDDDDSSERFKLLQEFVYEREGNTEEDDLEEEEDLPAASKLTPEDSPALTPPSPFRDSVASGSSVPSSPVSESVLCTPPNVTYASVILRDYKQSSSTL

mGluR-evoked Ca+2 response, amplitude [1]: 170 nM | mGluR-evoked Ca+2 response, latency [1]: 10.5 s
Molecule: IEG form of Homer 1: 186 amino acid amino-terminal fragment of Homer 1b (pRK5 Homer 1 IEG) (from UniProt Q9Z2Y3 1-198)

binding result [2]: no binding
B1: GST-GKAP(carboxy-terminal): carboxy-terminal 76 amino acids of GKAP1a fused to GST (other, UniProt P97836-5 591-666, looked up)
chain: MDPLDKKERRAPPPVPKKPAKGPAPLIRERSLESSQRQEARKRLMAAKRAASVRQNSATESAESIEIYIPEAQTRL
notes: domain: carboxy-terminal 76 amino acids; not shown: glutathione-S-transferase, fusion partner
